Here are results for 36 sequences from the supplement of paper PMC12764529.

Data set [1] in a line: folding stability dG unfold from chymotrypsin proteolysis; higher = more stable. The procedure, abridged: (§1)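 Unfolding free energy was derived, per protease or combined, by relating Bayesian-fitted K50 values from sequencing counts to a sequence-predicted unfolded-state K50 and a shared folded-state K50. The underlying digests exposed cysteine-free mini-proteins under 80 residues, in a PA-tagged cDNA display construct, to trypsin and chymotrypsin at 11 threefold-diluted concentrations and to a no-protease condition. A filter kept only designs with AlphaFold2 dimer inter-PAE above 15.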

Data set [2] in a line: folding stability dG unfold (combined trypsin and chymotrypsin); higher = more stable. The procedure, abridged: as §1
Data set [3] is described as follows: folding stability dG unfold from trypsin proteolysis; higher = more stable. The procedure, abridged:
as §1

± gives the half width of the 95% confidence interval.

For “SAGMTIKIKNKKTNKVITIERRPDGTTVKVKVYDKNGKLVKTYPEGMTLEELLKKFPNAKVEVVEVEKPSAG [r5_314_TrROS_Hall]”, the entries for the “folding stability dG unfold” value in data set [1], in data set [2] and in data set [3] were 0.559 ± 0.11 kcal/mol, 1.14 ± 0.07 kcal/mol and 1.47 ± 0.033 kcal/mol, respectively.
For “SAGMTLIIRVKVYNKDGELVEEREIEVPNMSVEEIAEALKKLPNVEKVKIEVFNADGEKKEIEIEVKPSAGG [r19_269_TrROS_Hall]”, in that order: 4.43 ± 0.064 kcal/mol, 4.1 ± 0.09 kcal/mol and 3.08 ± 0.13 kcal/mol.
With “SAGMTTLTLSAKAPPGEAVVTLTVTLPDGTTVPLATRTVAPDEVANITVSFPSGEPIDPARLTVEVTPPSAG [r5_287_JUSTAS]”, the “folding stability dG unfold” value in data set [1] came out at 0.137 ± 0.15 kcal/mol; in data set [2], 0.157 ± 0.13 kcal/mol; in data set [3], 0.0521 ± 0.14 kcal/mol.
For “SAGMTTTLTKGEDGVTLTFDLPGQSVTLTVPVPPDVEVTTSFPATGTTITGTPVGDTLTITVTVPAPASAGG [r19_384_JUSTAS]”, in that order: 1.52 ± 0.041 kcal/mol, 1.69 ± 0.038 kcal/mol and 1.78 ± 0.028 kcal/mol.
For “SAGMTVEELKAQPKNATVTSVSRDPSTGLYTVTIERPDSNGKWVTHTLTLTGPEAVAAAVAAGLPSLAASAG [r5_905_JUSTAS]”, in that order: 2.46 ± 0.043 kcal/mol, 2.16 ± 0.087 kcal/mol and 1.31 ± 0.026 kcal/mol.
For “SAGMTVKVKVEVKTKYFDKNGKLVKEEKKTVEVEVEVKIVIELKPEDLEKAKELAEKLGIEITEEELKSAGG [r19_315_TrROS_Hall]”, in that order: 1.86 ± 0.17 kcal/mol, 1.74 ± 0.56 kcal/mol and 1.26 ± 0.29 kcal/mol.
Regarding “SAGMVEIVHDPAGYYTVNVTLTKEGKPTSRTIRVPPELSPEEVKALVEELAKEEGVDDVEVTVIPLPESAGG [r19_31_JUSTAS]”, the “folding stability dG unfold” value in data set [1] stood at 1.51 ± 0.12 kcal/mol; in data set [2], 1.41 ± 0.12 kcal/mol; in data set [3], 1.1 ± 0.035 kcal/mol.
For “SAGMVEVYEEDKRLLVRVTLESPDPSTITEETVRELLERLGLPVEELEISPTALPNGSYTVTAEVVVLPSAG [r5_922_JUSTAS]”, in that order: 1.61 ± 0.025 kcal/mol, 1.59 ± 0.17 kcal/mol and 1.39 ± 0.056 kcal/mol.
For “SAGMVIKVEVIYNGKKYTIEISEEQLKELLEKLKPGDEVEIEINGEKVLVRVEVVEPPEPSEEELKALKSAG [r5_669_TrROS_Hall]”, in that order: 2.1 ± 0.2 kcal/mol, 1.69 ± 0.24 kcal/mol and 0.944 ± 0.087 kcal/mol.
Consider “SAGMVIPREEALANYSEEEIKELAKKIAEELGYKPKKIEIKKDPSPNSSITVTITPPDGSTIPLVLELPSAG [r5_745_JUSTAS]”, for which the “folding stability dG unfold” value in data set [1] turned out to be 1.08 ± 0.037 kcal/mol; in data set [2], 1.06 ± 0.047 kcal/mol; in data set [3], 0.959 ± 0.041 kcal/mol.
For “SAGMVIRDPGDGKYIYISPGSGEIEIFNDGKEKKIPFPPGEEMEIEIDPDDGTITITFPNNGRELEIPLSAG [r5_858_TrROS]”, in that order: 0.846 ± 0.11 kcal/mol, 0.699 ± 0.16 kcal/mol and 0.598 ± 0.049 kcal/mol.
On to “SAGMVITISSDLSPEEVLATAQALAAELGAKKVEVERDPANPDVVTVTVEFPGLGKTVTVNVLPPELLESAG [r5_912_JUSTAS]”, for which the “folding stability dG unfold” value in data set [1] amounted to 1.78 ± 0.065 kcal/mol; in data set [2], 1.57 ± 0.15 kcal/mol; in data set [3], 1.28 ± 0.059 kcal/mol.
For “SAGMVKTVTLSREEVEKLVRELGRSPEEMTLEEFAERLEELFPGATVTVTVDTKTGTYTITITFPPSLASAG [r5_264_JUSTAS]”, in that order: 4.16 ± 0.085 kcal/mol, 3.93 ± 0.23 kcal/mol and 3.61 ± 0.25 kcal/mol.
For “SAGMVKVEVEYRPLPNGTVEVTVKLTITEPVPDEDGNLYYKTKTLTITVPTTSLSEAPKHVEEFIKKLSAGG [r19_218_TrMRF]”, in that order: 4.03 ± 0.18 kcal/mol, 3.37 ± 0.19 kcal/mol and 2.52 ± 0.12 kcal/mol.
For “SAGMVRIERDGDELLIEFEFPEDEPEAVRALIEAIESLGLEVVEAEIEAEPGEGDLRRVRLRFKIKPLESAG [r5_739_TrMRF]”, in that order: 4.58 ± 0.083 kcal/mol, 4.39 ± 0.15 kcal/mol and 3.95 ± 0.22 kcal/mol.
Regarding “SAGMVTTTTVTFPNGATMTVTTHSSGIITIEATSEEDARAFLEAQGLPLTSREVLPDGTYRFTAVVPPSAGG [r19_257_JUSTAS]”, the “folding stability dG unfold” value in data set [1] is 4.53 ± 0.057 kcal/mol; in data set [2], 4.52 ± 0.062 kcal/mol; in data set [3], 4.61 ± 0.13 kcal/mol.
For “SAGMVTYTVTVPYAPAGKRVRVTLFDEGKEIASFEGVENAPYNQTFTFTAPPFTIRIEYEDGSVDPLPASAG [r5_646_TrMRF]”, in that order: 4.05 ± 0.058 kcal/mol, 3.57 ± 0.23 kcal/mol and 3.32 ± 0.27 kcal/mol.
For “SAGMVVIEVKKDEVPVDPEKALVFEFGDKRYILVDGEKAEEIKDAFPNLDIKIKPVSPEELEKLLKAHSAGG [r19_271_TrMRF]”, in that order: 1.34 ± 0.1 kcal/mol, 1.27 ± 0.14 kcal/mol and 1.18 ± 0.051 kcal/mol.
For “SAGMVVKFVSPSKKYVAVVYFSPDGKYRTALLYDASGELVSVIPSSVPVEELLEAFPDATVEVYPLDPPSAG [r5_314_TrMRF]”, in that order: 2.59 ± 0.056 kcal/mol, 2.34 ± 0.1 kcal/mol and 1.95 ± 0.041 kcal/mol.
In the case of “SAGMVVRITVLPEGEEREFVVAATPEEARELLEELGYEVEEFPELPVLVARRPDAVVLVEFIPVAPDALSAG [r5_248_TrMRF]”, the results for the “folding stability dG unfold” value in data set [1], in data set [2] and in data set [3] were 1.999 ± 0.015 kcal/mol, 1.83 ± 0.039 kcal/mol and 1.59 ± 0.032 kcal/mol, respectively.
For “SAGMVVTERTEPATGRPYTVTTEEDGSVTGSYPATGDTRSTTLNDRTTFSLPTTSPEVAAAQVEAALAASAG [r14_561_JUSTAS]”, in that order: -0.313 ± 0.15 kcal/mol, -0.137 ± 0.072 kcal/mol and -0.138 ± 0.075 kcal/mol.
Consider “SAGMVVTINFSIPETGETITITIPVPEDDPVVKALGAPSAEDIAAYLAPQLKEKGINVQNPTVTVTEPSSAG [r5_722_JUSTAS]”, for which the “folding stability dG unfold” value in data set [1] came to 0.928 ± 0.053 kcal/mol; in data set [2], 0.705 ± 0.051 kcal/mol; in data set [3], 0.24 ± 0.043 kcal/mol.
For “SAGNFKIDINPENNMIMIKSPNGWFMFPFTYTRTQPEPDPDDPNEWKQRPRTETHYIMMPANDLKDLLNSAG [r5_234_TrROS]”, in that order: 0.502 ± 0.24 kcal/mol, 0.541 ± 0.27 kcal/mol and 0.679 ± 0.17 kcal/mol.
For “SAGNIRIDVHVPPDGYYMIKIRFPGNGREANIMLPPNDPDKFKELAEEIAENLFEEGFPIEVDIEPIPPSAG [r5_815_TrROS]”, in that order: 2.34 ± 0.095 kcal/mol, 1.89 ± 0.31 kcal/mol and 1.56 ± 0.07 kcal/mol.
For “SAGNMFMVRITFPMPRYEQKRDPDNGKPKMEPKPHPREITIMVPPDSPQARDLANKLAPPGWKVDVFPMSAG [r5_468_TrROS]”, in that order: 1.43 ± 0.22 kcal/mol, 1.09 ± 0.19 kcal/mol and 0.0695 ± 0.58 kcal/mol.
In the case of “SAGNPDKPPKPRTYTLEIEIKLPPGDPDQAKELAHEIAHEIRDLGIKDTEVEYDPGNGRVRISITFTFWSAG [r5_512_TrROS]”, the “folding stability dG unfold” value worked out at 3.49 ± 0.09 kcal/mol in data set [1], 3.27 ± 0.28 kcal/mol in data set [2] and 2.8 ± 0.076 kcal/mol in data set [3].
For “SAGNPDYIPIPFRVWIMRRVPPGMSKEQAKKNPDMYVMVPIPVKFYIDPDTGRIRVENPDGKTIEFPLPSAG [r5_701_TrROS]”, in that order: 3.15 ± 0.07 kcal/mol, 2.68 ± 0.096 kcal/mol and 2.11 ± 0.03 kcal/mol.
As for “SAGNPSLVKETIIPFTLPDGSEVKLTVKTDPSTGKVTMPIETKDEKVKAKAIELAKKIAEELGFPEVGLSAG [r5_99_JUSTAS]”, the “folding stability dG unfold” value in data set [1] was 0.241 ± 0.14 kcal/mol; in data set [2], 0.261 ± 0.079 kcal/mol; in data set [3] it was -0.00377 ± 0.15 kcal/mol.
For “SAGNVVETEEKPVESPLPRKATLTTLTSPTPGVTFRVFTSPENVTTVEVETDGRTETLEPAEAEALLASSAG [r5_157_JUSTAS]”, in that order: -0.995 ± 0.3 kcal/mol, under -1 kcal/mol and -1.35 ± 0.58 kcal/mol.
For “SAGNWKIEIKVKHRRTPDGYYRVTARIQIWDPKNGKPLREIPIEGPFDSPEQAERRARKKAKEILKALSAGG [r19_255_TrROS]”, in that order: 2.71 ± 0.044 kcal/mol, 2.74 ± 0.13 kcal/mol and 2.97 ± 0.068 kcal/mol.
For “SAGNYYRVEVENPSEGKKVTIHIFPNGMINVEHDGGEHWIMIPPDNPDQIEEIASELAPNGYEVDIEPWSAG [r5_791_TrROS]”, in that order: 0.856 ± 0.27 kcal/mol, 0.774 ± 0.18 kcal/mol and 0.593 ± 0.11 kcal/mol.
As to “SAGPDLPFDVRLVEVRDMEVRVTPDGRLVVTLPMVGRHPSGFLVRRTIRFEPETDRVEATGEVRPLDESAGG [r19_320_TrMRF]”, the “folding stability dG unfold” value in data set [1] was found to be 0.804 ± 0.087 kcal/mol; in data set [2], 0.774 ± 0.059 kcal/mol; in data set [3], 0.581 ± 0.062 kcal/mol.
For the sequence “SAGPEPVIRLAREHLERGEVLRITLTGRSGVPRTFLLRPEDILWFFDNLPDPSDIASVDIETYPLGYPPSAG [r5_956_TrMRF]”, the “folding stability dG unfold” value was 3.352 ± 0.016 kcal/mol in data set [1], 3.01 ± 0.078 kcal/mol in data set [2] and 2.17 ± 0.028 kcal/mol in data set [3].
For “SAGPEVVVFKGIEVEVTEVPPELLENLPPDVIAIPFGDRVLLIRVREYDVARFPPIPPLGANPETGELSSAG [r14_126_TrMRF]”, in that order: 2.61 ± 0.11 kcal/mol, 2.44 ± 0.3 kcal/mol and 2.17 ± 0.12 kcal/mol.
For “SAGPGWIMIRVKIKMRKWKDGKPVRRPIEIPIMAPADGDPEAARRKAEELAEFLAQMYGMEIEDVEIFPSAG [r5_497_TrROS]”, in that order: 3.74 ± 0.057 kcal/mol, 3.55 ± 0.065 kcal/mol and 3.07 ± 0.092 kcal/mol.
For “SAGPITITYDEETGTLTITATVAPGEEVTFKLTFVDEETGVVVTEVEETVTVKEGDTVTITVKVEKLPPSAG [r5_737_TrROS_Hall]”, in that order: 3.69 ± 0.13 kcal/mol, 3.34 ± 0.27 kcal/mol and 2.19 ± 0.14 kcal/mol.
